# According to publication PMC5430726, “Grb2 carboxyl-terminal SH3 domain can bivalently associate with two ligands, in an SH3 dependent manner” (Scientific Reports, 2017):
# B1: SLP65 peptide Ace-EKAPMVNRSTKPNSSS-NH2 (residues 201-216 of mouse SLP65) (peptide)
# peptide: Ac-EKAPMVNRSTKPNSSS-NH2
# notes: SLP65, mouse, residues 201-216; also called synthetic peptide; source: synthetic peptide
# What was measured:
# [1] = molecular target: T1, Grb2 C-terminal SH3 domain (SH3C), residues 155-217 (mouse, UniProt Q60631 155-217); experiment: ITC; SLP65 peptide titrated into the preformed Grb2 SH3C-Vav SH3N binary complex (gives Complex 1, Vav displaced); 20 mM sodium phosphate, 100 mM NaCl, pH 6.0, 25 °C; details: both partners purified
# T1 construct: Uniformly 15N or 15N,13C labelled in the NMR titrations; monomer by glutaraldehyde cross-linking and SEC; also called Grb2 SH3C; Grb2 CSH3 domain; source: E. coli, purified (Ni2+-NTA chromatography); not shown: His tag, N-terminal, cleaved
# T1 sequence (Q60631 155-217): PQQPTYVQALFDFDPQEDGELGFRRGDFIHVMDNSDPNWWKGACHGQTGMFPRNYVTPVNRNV
# [2] = molecular target: T1, Grb2 C-terminal SH3 domain (SH3C), …; experiment: ITC; free Grb2 SH3C in the cell (20 uM for the peptide, 40 uM for Vav) titrated with 280 uM SLP65 peptide or 600 uM Vav SH3N; 20 mM sodium phosphate, 100 mM NaCl, pH 6.0, 25 °C; one-site binding model; details: both partners purified
binder,measurement,setting,value
B1,Kd with Vav SH3N prebound to Grb2 SH3C (Vav displaced),[1],33.3 ± 1.1 µM
same,dH with Vav SH3N prebound to Grb2 SH3C (Vav displaced),[1],-5.9 ± 0.04 kcal/mol
same,Kd,[2],3.55 ± 0.2 µM
same,dH,[2],-6.67 ± 0.15 kcal/mol
same,stoichiometry N,[2],0.87 ± 0.02
